Reference: the nanobody polyreactivity screen of Harvey et al. (2022)

Assay: yeast display, Sf9 membrane polyspecificity reagent, FACS + sequencing; frameworks hold sequencing errors
Method in brief: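 Galactose-induced (36–48 hours) yeast carrying a synthetic nanobody display library were exposed to 10% biotinylated, detergent-solubilized Sf9 membrane reagent at 4 °C for 1 hour. FACS followed streptavidin microbead enrichment, using low and high (top ~1%) gates for expression (anti-HA) and reagent binding (streptavidin). Colony PCR, MiSeq 2 × 250 sequencing and CDR-length filtering followed. Labels for polyreactivity reflect the gate of origin.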

Sequence | polyreactivity (PSR sort gate)
QDQLVESGRGLVQAGGSLRLSCAASGSTFSYYAIGWYRQAPGKERELVAAISRRGGSTYYADSVKGRFTISRDNAKNSVYLQMNSLKPEDTAVYYCNRVTYTGYDSWGQGTQVTVSS | high polyreactivity
QDQLVESGVGIVQAGRSLRLSCAASGFTFSGYAMGWDRQAPGKERELVAAINWRGDSTYYADSVKGRFTISRDNAKNTVYLQMNSLKPEDTAVYYCNVVLGPQRYSTDYGYWGQGTQVTVSS | high polyreactivity
QDQLVESGVGLVQAGGSHRLSSAASGSTFRRNTMGWYRQAPGKERELVAAISNGGRTYYADSVKGRFTISRDNAKNTVYLQMNRLKPEDTAVYYCNKVRSPWYDSWGQGTQVTVSS | high polyreactivity
QDQLVESGVGLVQAGGSLRLSCAASGRTFYYNTMGWYRPAPGKETEFVATITSTHDTNYADSVKGRFTISRDNAKNSVYLQMNSLKPEDTAVYYCAKGYLNYGRDWDFDYWGHGTQVTVSS | low polyreactivity
QDQLVESGVGLVQAGGSLRLSCAASGSIFHGNAMGWYRQAPGKERELVATISSGGSTYYADSVKGRFTISRDNAKNTVYLQMNSLKPEDTAVYYCAAERFWPYKSYYWGQGTQVTVSS | low polyreactivity
QDQLVESGVGLVQEGGSLRLSCAASGSILKRYVMGWYRQAPGKERELVAAISSGSRTYYADSVKGRFTISRDNAKNTVYLQMNSLKPEDTAVYYCAADLTYKYHYDYWGQGTQVTVSS | high polyreactivity
QDQLVESRAGLVQAGGSLRLSCADTGNIFDFNAIGSYRQAPGKERELVAAISQRGTRTYYADSVKGRFTISRDNAKNTVYLQMKSLKPDYTAVYYCNRGGWRQYDSWGQGTQVTVSS | high polyreactivity
QDQLVESVGGLDQAGGSLRLSCAASGLIFQSYVMGWYRQAPGKERELVAAISSSVGSTHYADSVKGRFTISRDNAKNTVYLQMNSLKPEDTAVYYCAVEDYYADSGVEYDYWGQGTQVTVSS | low polyreactivity
QDQLVESVGGLVQAGGSLRLSCAASGRTLVRYVMGWYRQAPGKERELVAAISARTGSTYYADSVKGRFTISRDNAKNTVYLQMNSLKPEDTAVYYCATKFSSYDTRVSYDYWGQGTQVTVSS | low polyreactivity
QDQLVESVVGLVQAGGSLSLSCDSSARTFWYNAMGCYRQAPGKEREFVAAISSSGGTTYYADSVKGRFTISRDNAKNTVYLQMNSLKPEDTAVYYCAKRFSLLSTVRWGRYNYWGQGTQVTVSS | high polyreactivity
QDQLVESWGGLVQAGGSLRLICASSGSNIGYNAMGWYRPAPVKERELVAAISYSGGSTYYADSVKGRFTISRDNAKNTVYFRMNSLKPEDTAVYYCNKYIRRYLIYGSWGQGSQVTVSS | high polyreactivity
QDQLVESWGGLVQAVGSLRLSCAASGSTFEDYGMGWNRQAPGKERQFVAAIRYSGSSKYADSVKGRFTISRDNAKNTVFLLMKSLIPEDTAVYYCAKYGVRVGFGYSSEYFGQGTQVTVSS | low polyreactivity
QDQLVETGVGLVQAGGSLLLSCAPSAITFRGYAMGWYRQAPGKEREYVAAITSGSSTYYADSVKGRFTISRDNAKNTVYLQMNSLKPEDTAVYYCAAERTKSFKLTRPGSMDYWGQGTQVTVSS | low polyreactivity
QDQLVQSGLGLVQAGGSLRLSCAASGITFYWYTIAWYRQATGKERELVAAISRRGGSTSYADSVKGRFTISRDNAKNTVYLQMNSLKPEDTAVYYCAKTPGWTDYDYWGQGTQVTVSS | high polyreactivity
QDQQVESGGGLVQAGGSLRLSSAASGRTFGTYALGWYRQARGNERELVAAITKSGGSTYYADSVKGRFIISRDNAKNTVYLQMNSLKPEDTAVYYCAAAVPRYRVYYWGQGTQVTVSS | high polyreactivity
QDQRVESGGGLVQAGGSLRLSCAASGRIFSWYAMGWYRQAPGQERELVAAIDSGGRTNYADSVKGRFTISRDNAKNTVYLQMNSLKPEDTAVYYCAKEGYWPRYWERFDYWGQGTQVTVSS | low polyreactivity
QDQRVESGGGLVQAGGSLRLSCAASGRTISVYAMGWYRQAPGKERELVAAIRTSGGITYYADSVKGRFTISRDNAKNTVYLQMNSLKPEDTAVYYCAAETFRHDSYTRYYYWGQGTQVTVSS | high polyreactivity
QEQHVESAGGLVQAGGSLRLSCAASASIIYKYAMGWYRQAPGKERELVAAINSGGRTYYADSVKGRFTISRDNAKNTVYLQMNSLKPEDTAVYYCNAGTYYPGRYDYWGQGTQVTVSS | high polyreactivity
QEQLQESGGGLGQAGGSLRLSCAASGSISSDVLMGWHRQAPGKERELVAAIGIGANTYYADSVKGRFTISRDNAKNTVYPQMNSLKPEDTAVYYCATGRYSGADNYWGQGTQVTVSS | high polyreactivity
QEQLQESGGGLVQAGGSLRLSCAASGNITLDTAMGWSRQAPRKEREFVASINDGGITNYADSVKGRFTICRDNAKNSVYLQMNSLKPEDTAVFYCAARWIWRGYDYWGQGTQVTVSS | high polyreactivity
QEQLQESGGGLVQAGGSLRMSCAASGTIFSEANKGWYRQAPGKERELVATIGQGSTTNYADSVKGRFTISRDNAKNTVYLQMNSLKPEETAVYYCAVVTVDPVGFVYWGQGTQVTVSS | low polyreactivity
QEQLQESGGGQVQAGGSLLLSCAASGNIIRYYYMGWYRQAPGKERELVAAINVGAITYYADSVKGRFSISRDNAKNTVYLPMNSLTPEDTAVYYCAVDQYSEAYYDYWGQGTQATVSS | high polyreactivity

Sequence | polyreactivity (PSR sort gate)
QEQLQESVVCQVQAGRSLHLSCAASGNIIRYSYMGWYRQAPGNERELVAAITYGTSTNYADSVKGRFTISRDHAKNTVYLQMTSLKPEDTAVYYCAVDVNYGDPLDNWCQGTQVTVSS | high polyreactivity
QEQLVESGGGIVQAGGTLRLSGADSGSIFVKNAMGWYRQAHGKERQWVARITYSGGSTYYADSVKGRFTISRDNAKNTVYLQMNSLKPEDTAVYYCAARYWYFPQPYYPGNDYWGQGTQVTVSS | high polyreactivity
QEQLVESGGGLVQAGGSLRLSCAASGSIRYYAMGWDRQAPGKESELVATITRGGSTYYADSVKGRFTISRDNAKNTVYLQMNSLKPEDTAVYYCAARRAVRVGYYWHDISSYDYWGQGTQVTVSS | low polyreactivity
QEQLVESGGGLVQAGGTLRLSCDASVSTQWYNAMGWYRQAPGKERELVATITAGGGSTYYADSVKGRFTISRDNAKNTVYLQMNSLKREDTAVYYCATRYTPAQLDYWGQGTQVTVSS | low polyreactivity
QEQLVETVVGLVQARGSLRLRSAASGITFRKYAMRWYRQAPGKERDFVAAITRGGRTYYADSVKGRFTISRENAKNTVYLQMNSLKPEDTAVYYCAACTVVYAGSTYLQPFDYWGQGTQVTVSS | high polyreactivity
QFHLVESCGGLVQAGGSLRLSCAASGIIFSTYFMGWYIQAPGKERELVAAISSRGFSTYYADSVKGRFTISRDNAKKTVYLQMNSLIPEDTAVYYCAARYYYSRSRLYYYWGQGTQVTVSS | high polyreactivity
QFQLEESGGGLVQAGGSLRLSCAASGNIFFTNAMGRYRQAPGNERELVATITFRGTSTYYADSVKGRFTISRDNAKNTVYLQMNCLKPEDTAVYYCTARYSVFHRARVNLLGWGLYYWGQGTQVTVSS | low polyreactivity
QFQLEESGGGLVQAGGSLRLSCAASGRIFPTYTRGWYSQAPGKERVLVAGISYSGTSTSYADSVKGRFTMSRDNAKNSVYLELNSLKPEDTAVYYCAAKYYGRSFYYGYDYWGQGTQVTVSS | low polyreactivity
QFQLEESGRGLVQAGGSLRLSCAASGSTLSYNAMGCYRQAPGKERELVAAISGRGGSTSYADSVKGRFTITRDNAKKTVYLQMNRLKPVDTAVYYCIAGKYSSSAALYDYWGQGTQVTVSS | high polyreactivity
QFQLEESVGGLVQAGGSLRLSCAASGFTFKSYAMGWYRQATVNVREFVARITYSGGGTYYADSVKGRFTISRDNAKNTVYLLMNSLKPEDTAVYYCARPFNRYLGLTRNGYTSDYWGQGTQVTVSS | high polyreactivity
QFQLGESGGGLVQAGGSLRLSCAACGSTFYLYAMGWYRQAPGKDRELVAAISKSCGSTYYADSVKGRFTISRDNAKNTVYLQMNSLKPEVTAVYYCATRWIKGRKMDYWGQGTQVTVSS | high polyreactivity
QFQLGESGGGLVQAGGSLRLSCAASGYIFKKNAMGWYRQAPGYERELVAVISARGGRTYYADSVKGRFTISRDKGKNTVYLQMNSLKPEDTAVYYCAAVSLGITYDYWGQGTQVTVSS | low polyreactivity
QFQLVESCGGLVQAGGSLRLSCAASGSIFYYYVMGWYRQAPGKEREFVAAISWRGDSTYYADSVKGRFTISRDNAKNTVYLQMNSLKPEDTAVYYCNADYPWSVVGYDYLGQGTQVTVSS | low polyreactivity
QFQLVESGGGIVQAGGSLRLSCAASGRTIYQYAMGWYRESPANERELVAAISRSGTSTYYADSVKGRFTISRDNAKNTVYLQMNSLKPEDTAVYFCAARYVSKYNYPSPEMYYWGQGTKVTVSS | high polyreactivity
QFQLVESGGGLVHAGGSLRLICAASGRTFVYNAMGWYRQAPGKERDLVAAISFGGGNTYYADSVKGRFTISRDNAKNTVYLQMNCLKPEDTAVYYCAKAYIGYWGASCYYAYDYWGQGTQVTVSS | low polyreactivity
QFQLVESGGGLVQAGGRLRLSCAASGYTFYSYAMGWSRQAPGKERELVASITRRVGGTYYADSVKGRFTISRDNAKKTVYLQMNSLKPEDTAVYYCAAGYYHKKSSTDIEKYWGQGTQLTVSS | low polyreactivity
QFQLVESGGGLVQAGGSLRLICDASGSIFYPYTIGWYRQAPWKERQLVAAITWDGGNTYYADSVKGRFTISRDNAKNTVYLQMNSLKREDTAVYYCAAVTSGWGTYRMYYWGQGTQETVSS | high polyreactivity
QFQLVESGGGLVQAGGSLRLSCAASGCIFLYYAMGSYRPATGNERELVASISSGGSTNYADSVKGRFTISRDNAKNTVYLQMNSLKPEDTAVYYCAARPYGGGRRSIYYYWGQGTQVTESS | high polyreactivity
QFQLVESGGGLVQAGGSLRLSCAASGFTFWLYAMGWYRQAPGKEREFVAAISTSGGSTYADSVKGRFTISRDNAKNTVYLHMNSLKPEDTAVYYCNAGYLLYYDYHLFYWGQGTQVTVSS | low polyreactivity
QFQLVESGGGLVQAGGSLRLSCAASGGTFGWNAMGLYRQAPGKERELVAAITSSGGDTYYADSVKGRFTISRDNAKNTVYLQMNSLKPEDTAVYYCAAEDGRQYGYWGQGTQVTVSS | low polyreactivity
QFQLVESGGGLVQAGGSLRLSCAASGGTFYSNAMGCYRQAPGKERDLVATITGGGRTYYADSVKGRFTISRDNAKNTVYLQMNSLKPEDNAVYYCAVRGYHQYKYGYWGQGTQVNVSS | high polyreactivity
